Source: the supplement of paper PMC11246515
± gives the standard deviation of the averaged measurements.

Test: total protein half-life in vivo (active degradation + dilution); higher = more stable protein
[1] = E. coli NCM3722 delta-clpP, growth: N-lim chemostat, doubling time 6 h
[2] = E. coli NCM3722 delta-hslV, growth: N-lim chemostat, doubling time 6 h
[3] = E. coli NCM3722 delta-smpB, growth: N-lim chemostat, doubling time 6 h
[4] = wild type E. coli NCM3722, growth: C-lim chemostat, doubling time 3 h
[5] = wild type E. coli NCM3722, growth: C-lim chemostat, doubling time 12 h
[6] = wild type E. coli NCM3722, growth: N-lim chemostat, doubling time 6 h
[7] = wild type E. coli NCM3722, growth: N-lim chemostat, doubling time 12 h
[8] = wild type E. coli NCM3722, growth: P-lim chemostat, doubling time 12 h
[9] = E. coli NCM3722 delta-clpP delta-lon delta-hslV, growth: N-lim chemostat, doubling time 6 h
[10] = wild type E. coli NCM3722, growth: C-lim chemostat, doubling time 6 h
[11] = wild type E. coli NCM3722, growth: P-lim chemostat, doubling time 6 h
[12] = E. coli NCM3722 delta-lon, growth: N-lim chemostat, doubling time 6 h

| Sequence | total protein half-life in vivo [1] [h] | total protein half-life in vivo [2] [h] | total protein half-life in vivo [3] [h] | total protein half-life in vivo [4] [h] | total protein half-life in vivo [5] [h] | total protein half-life in vivo [6] [h] | total protein half-life in vivo [7] [h] | total protein half-life in vivo [8] [h] | total protein half-life in vivo [9] [h] | total protein half-life in vivo [10] [h] | total protein half-life in vivo [11] [h] | total protein half-life in vivo [12] [h] |
| --- | --- | --- | --- | --- | --- | --- | --- | --- | --- | --- | --- | --- |
| MRKYRLSEEQRAFSYQEDGTKKNVLLRQIIAISDFNDVIAGTAGGWIDRETVLAQEGNCWIYDQNAIAFGGAVISGNTRITGTSVLWGEVYATDNVWIDNSEISQGAYISDSVTIHDSLVYGQCRIFGHALIDQHSMIVAAQGLTPDHQLLLQIYDRARVSASRIVHQAQIYGDAVVRYAFIEHRAEVFDFASIEGNEENNVWLCDCAKVYGHAQVKAGIEEDAIPTIHYSSQVAEYAIVEGNCVLKHHVLVGGNAVVRGGPILLDEHVVIQGESRITGAVIIENHVELTDHAVVEAFDGDTVHVRGPKVINGEERITRTPLAGLL | 4.51 | 3.02 | 2.62 ± 0.092 | 2.39 | 6.16 | 3.27 | 5.74 | 8.26 ± 1 |  |  |  |  |
| MRLAPLYRNALLLTGLLLSGIAAVQAADWPRQITDSRGTHTLESQPQRIVSTSVTLTGSLLAIDAPVIASGATTPNNRVADDQGFLRQWSKVAKERKLQRLYIGEPSAEAVAAQMPDLILISATGGDSALALYDQLSTIAPTLIINYDDKSWQSLLTQLGEITGHEKQAAERIAQFDKQLAAAKEQIKLPPQPVTAIVYTAAAHSANLWTPESAQGQMLEQLGFTLAKLPAGLNASQSQGKRHDIIQLGGENLAAGLNGESLFLFAGDQKDADAIYANPLLAHLPAVQNKQVYALGTETFRLDYYSAMQVLDRLKALF [P0AEL6] | 4.68 ± 0.25 | 5.13 | 5.5 ± 0.95 | > 4 | 11.5 ± 3.5 | 5.62 ± 0.55 | 10.4 ± 3 |  | 3.63 ± 0.44 | 5.29 ± 0.068 | 6.51 ± 0.24 |  |
| MRLEVFCEDRLGLTRELLDLLVLRGIDLRGIEIDPIGRIYLNFAELEFESFSSLMAEIRRIAGVTDVRTVPWMPSEREHLALSALLEALPEPVLSVDMKSKVDMANPASCQLFGQKLDRLRNHTAAQLINGFNFLRWLESEPQDSHNEHVVINGQNFLMEITPVYLQDENDQHVLTGAVVMLRSTIRMGRQLQNVAAQDVSAFSQIVAVSPKMKHVVEQAQKLAMLSAPLLITGDTGTGKDLFAYACHQASPRAGKPYLALNCASIPEDAVESELFGHAPEGKKGFFEQANGGSVLLDEIGEMSPRMQAKLLRFLNDGTFRRVGEDHEVHVDVRVICATQKNLVELVQKGMFREDLYYRLNVLTLNLPPLRDCPQDIMPLTELFVARFADEQGVPRPKLAADLNTVLTRYAWPGNVRQLKNAIYRALTQLDGYELRPQDILLPDYDAATVAVGEDAMEGSLDEITSRFERSVLTQLYRNYPSTRKLAKRLGVSHTAIANKLREYGLSQKKNEE | 4.83 ± 0.089 | 4.73 ± 0.23 | 4.6 ± 0.14 | 2.69 ± 0.14 | 8.21 ± 0.57 | 4.51 ± 0.34 | 8.243 ± 0.066 | 9.34 ± 0.13 | 6.71 ± 0.79 | 5.844 ± 0.052 | 4.84 ± 0.092 | 6.13 ± 0.71 |
| MRLLHTMLRVGDLQRSIDFYTKVLGMKLLRTSENPEYKYSLAFVGYGPETEEAVIELTYNWGVDKYELGTAYGHIALSVDNAAEACEKIRQNGGNVTREAGPVKGGTTVIAFVEDPDGYKIELIEEKDAGRGLGN [P0AC81] | 4.5 ± 0.53 | 4.72 ± 0.37 | 4.3 ± 0.39 | 3.48 ± 0.63 | 8.9 ± 0.29 | 4.38 ± 0.4 | 8.01 ± 1 | 11.6 ± 0.91 | 5.13 ± 0.38 | 5.44 ± 0.1 | 5.41 ± 0.27 | 5 ± 0.3 |
| MRLPIFLDTDPGIDDAVAIAAAIFAPELDLQLMTTVAGNVSVEKTTRNALQLLHFWNAEIPLAQGAAVPLVRAPRDAASVHGESGMAGYDFVEHNRKPLGIPAFLAIRDALMRAPEPVTLVAIGPLTNIALLLSQCPECKPYIRRLVIMGGSAGRGNCTPNAEFNIAADPEAAACVFRSGIEIVMCGLDVTNQAILTPDYLSTLPQLNRTGKMLHALFSHYRSGSMQSGLRMHDLCAIAWLVRPDLFTLKPCFVAVETQGEFTSGTTVVDIDGCLGKPANVQVALDLDVKGFQQWVAEVLALAS | 4.75 |  | 3.64 | 2.8 ± 0.15 | 9.27 ± 3.1 | 3.89 | 11.1 | 8.95 ± 3.1 | 4.86 ± 1.4 | 5.62 ± 0.1 |  | 4.13 |
| MRLTTKFSAFVTLLTGLTIFVTLLGCSLSFYNAIQYKFSHRVQAVATAIDTHLVSNDFSVLRPQITELMMSADIVRVDLLHGDKQVYTLARNGSYRPVGSSDLFRELSVPLIKHPGMSLRLVYQDPMGNYFHSLMTTAPLTGAIGFIIVMLFLAVRWLQRQLAGQELLETRATRILNGERGSNVLGTIYEWPPRTSSALDTLLREIQNAREQHSRLDTLIRSYAAQDVKTGLNNRLFFDNQLATLLEDQEKVGTHGIVMMIRLPDFNMLSDTWGHSQVEEQFFTLTNLLSTFMMRYPGALLARYHRSDFAALLPHRTLKEAESIAGQLIKAVDTLPNNKMLDRDDMIHIGICAWRSGQDTEQVMEHAESATRNAGLQGGNSWAIYDDSLPEKGRGNVRWRTLIEQMLSRGGPRLYQKPAVTREGQVHHRELMCRIFDGNEEVSSAEYMPMVLQFGLSEEYDRLQISRLIPLLRYWPEENLAIQVTVESLIRPRFQRWLRDTLMQCEKSQRKRIIIELAEADVGQHISRLQPVIRLVNALGVRVAVNQAGLTLVSTSWIKELNVELLKLHPGLVRNIEKRTENQLLVQSLVEACSGTSTQVYATGVRSRSEWQTLIQRGVTGGQGDFFASSQPLDTNVKKYSQRYSV | 6.52 ± 0.62 | 6.35 ± 0.42 | 5.945 ± 0.0086 | 3.44 ± 0.17 |  | 6.45 ± 0.23 | 11.59 ± 0.06 | 13 ± 0.43 | 6 ± 1.2 | 6.042 ± 0.0062 | 5.52 ± 0.13 | 5.67 ± 0.62 |
| MRNFDLSPLMRQWIGFDKLANALQNAGESQSFPPYNIEKSDDNHYRITLALAGFRQEDLEIQLEGTRLSVKGTPEQPKEEKKWLHQGLMNQPFSLSFTLAENMEVSGATFVNGLLHIDLIRNEPEPIAAQRIAISERPALNS [P0C058] | 2.21 ± 0.097 |  | 1.42 | 1.03 | 1.59 | 4.47 | 3.19 |  | 6.3 ± 0.16 |  |  |  |
